The labels stand for the following.
B1: AB1011 (antibody, V domains shown)
VH: EVQLVESGGGLVKPGGSLRLSCAASGFTFSDYGMHWVRQAPGKGLEWVSYISSGSSTFYYADTVKGRFTISRDNAKNSLYLQMNSLRAEDTAVYYCGSSQSYYRGTMDYWGQGTTVTVSS
VL: DIQLTQSPSSLSASVGDRVTITCRASQGVSTSTYTYMHWFQQKPGKAPKLLIKFASNLESGVPSRFSGSGSGTDFTLTISSLQPEDFATYYCQHSWEIPWTFGGGTKVEIK
notes: member of the group m33
B2: AB1013 (antibody, V domains shown)
VH: B1 VH
VL: B1 VL with M37V
notes: member of the group m33
B3: AB1014 (antibody, V domains shown)
VH: B1 VH with M107I
VL: B1 VL
notes: member of the group m33
B4: AB1015 (antibody, V domains shown)
VH: B1 VH with M107I
VL: B1 VL with M37L
notes: member of the group m33
B5: AB1012 (antibody, V domains shown)
VH: B1 VH
VL: B1 VL with M37L
notes: member of the group m33
B6: AB1016 (antibody, V domains shown)
VH: B1 VH with M107I
VL: B1 VL with M37V
notes: member of the group m33
B7: AB1878-TriNKET® (bispecific antibody, human IgG1, kappa)
chain: DIQLTQSPSSLSASVGDRVTITCRASQSVTTSNYNYMHWFQQKPGKAPKLLIKFASNLESGVPSRFSGSGSGTDFTLTISSLQPEDFATYYCQHSWEIPWTFGCGTKVEIKGGGGSGGGGSGGGGSGGGGSEVQLVESGGGLVKPGGSLRLSCAASRFTFSDFGMHWVRQAPGKCLEWVSYISSGSSTIYYADTVKGRFTISRDNAKNSLYLQMNSLRAEDTAVYYCASSQSYYRGTLDYWGQGTTVTVSSGSDKTHTCPPCPAPELLGGPSVFLFPPKPKDTLMISRTPEVTCVVVDVSHEDPEVKFNWYVDGVEVHNAKTKPREEQYNSTYRVVSVLTVLHQDWLNGKEYKCKVSNKALPAPIEKTISKAKGQPREPRVYTLPPCRDELTKNQVSLTCLVKGFYPSDIAVEWESNGQPENNYKTTPPVLVSDGSFTLYSKLTVDKSRWQQGNVFSCSVMHEALHNHYTQKSLSLSPG
heavy: EVQLVESGGGLVKPGGSLRLSCAASGFTFSSYSMNWVRQAPGKGLEWVSSISSSSSYIYYADSVKGRFTISRDNAKNSLYLQMNSLRAEDTAVYYCARGAPIGAAAGWFDPWGQGTLVTVSSASTKGPSVFPLAPSSKSTSGGTAALGCLVKDYFPEPVTVSWNSGALTSGVHTFPAVLQSSGLYSLSSVVTVPSSSLGTQTYICNVNHKPSNTKVDKKVEPKSCDKTHTCPPCPAPELLGGPSVFLFPPKPKDTLMISRTPEVTCVVVDVSHEDPEVKFNWYVDGVEVHNAKTKPREEQYNSTYRVVSVLTVLHQDWLNGKEYKCKVSNKALPAPIEKTISKAKGQPREPQVCTLPPSRDELTENQVSLTCLVKGFYPSDIAVEWESNGQPENNYKTTPPVLDSDGSFFLYSWLTVDKSRWQQGNVFSCSVMHEALHNHYTQKSLSLSPG
light: DIQMTQSPSSVSASVGDRVTITCRASQGISSWLAWYQQKPGKAPKLLIYAASSLQSGVPSRFSGSGSGTDFTLTISSLQPEDFATYYCQQGVSFPRTFGGGTKVEIKRTVAAPSVFIFPPSDEQLKSGTASVVCLLNNFYPREAKVQWKVDNALQSGNSQESVTEQDSKDSTYSLSSTLTLSKADYEKHKVYACEVTHQGLSSPVTKSFNRGEC
notes: F3′ format; also called AB1878-VL-VH TriNKET®; 10F10-IGHV3-21*05 BM1
B8: AB1886-TriNKET® (bispecific antibody, human IgG1, kappa)
chain: B7 chain with V168I
heavy: B7 heavy
light: B7 light
notes: F3′ format; also called AB1886-VL-VH TriNKET®; 10F10-IGHV3-11*01 BM1
B9: AB1884-TriNKET® (bispecific antibody, human IgG1, kappa)
chain: B7 chain with K144Q, V179I, S180A
heavy: B7 heavy
light: B7 light
notes: F3′ format; also called AB1884-VL-VH TriNKET®; 10F10-IGHV3-48*01 BM2
B10: AB1885-TriNKET® (bispecific antibody, human IgG1, kappa)
chain: B7 chain with E132Q, V179I, S180A
heavy: B7 heavy
light: B7 light
notes: F3′ format; also called AB1885-VL-VH TriNKET®; 10F10-IGHV3-11*01 BM2
B11: AB1882-TriNKET® (bispecific antibody, human IgG1, kappa)
chain: B7 chain with K144Q
heavy: B7 heavy
light: B7 light
notes: F3′ format; also called AB1882-VL-VH TriNKET®; 10F10-IGHV3-48*01 BM1
B12: AB1881-TriNKET® (bispecific antibody, human IgG1, kappa)
chain: B7 chain with V136L, K144Q, V179I, S180A, S209T
heavy: B7 heavy
light: B7 light
notes: F3′ format; also called AB1881-VL-VH TriNKET®; 10F10-IGHV3-23*03 BM2
B13: AB1887-TriNKET® (bispecific antibody, human IgG1, kappa)
chain: B7 chain with V179I, S180A
heavy: B7 heavy
light: B7 light
notes: F3′ format; also called AB1887-VL-VH TriNKET®; 10F10-IGHV3-21*05 BM2
B14: AB1892-TriNKET® (bispecific antibody, human IgG1, kappa)
chain: B7 chain with V136L, K144Q, A206S, S209T
heavy: B7 heavy
light: B7 light
notes: F3′ format; also called AB1892-VL-VH TriNKET®; 10F10-IGHV3-23*03 BM1
B15: AB1890-TriNKET® (bispecific antibody, human IgG1, kappa)
chain: DIQLTQSPSSLSASVGDRVTITCRASQGVSTSTYTYMHWFQQKPGKAPKLLIKFASNLESGVPSRFSGSGSGTDFTLTISSLQPEDFATYYCQHSWEIPWTFGCGTKVEIKGGGGSGGGGSGGGGSGGGGSEVQLLESGGGLVQPGGSLRLSCAASGFTFSDYGMHWVRQAPGKCLEWVSYISSGSSTFYYADTVKGRFTISRDNSKNTLYLQMNSLRAEDTAVYYCGSSQSYYRGTMDYWGQGTTVTVSSGSDKTHTCPPCPAPELLGGPSVFLFPPKPKDTLMISRTPEVTCVVVDVSHEDPEVKFNWYVDGVEVHNAKTKPREEQYNSTYRVVSVLTVLHQDWLNGKEYKCKVSNKALPAPIEKTISKAKGQPREPRVYTLPPCRDELTKNQVSLTCLVKGFYPSDIAVEWESNGQPENNYKTTPPVLVSDGSFTLYSKLTVDKSRWQQGNVFSCSVMHEALHNHYTQKSLSLSPG
heavy: B7 heavy
light: B7 light
notes: F3′ format; also called AB1890-VL-VH TriNKET®; 11F09-IGHV3-23*03 BM1-YB
B16: AB1893-TriNKET® (bispecific antibody, human IgG1, kappa)
chain: B15 chain with V179L, S180A, S206A
heavy: B7 heavy
light: B7 light
notes: F3′ format; also called AB1893-VL-VH TriNKET®; 11F09-IGHV3-23*03 BM2-YB
B17: AB1880-TriNKET® (bispecific antibody, human IgG1, kappa)
chain: B15 chain with L136V, Q144K, A154E, V179L, S180A, S206A, T209S
heavy: B7 heavy
light: B7 light
notes: F3′ format; also called AB1880-VL-VH TriNKET®; 11F09-IGHV3-21*05 BM2-YB
B18: AB1889-TriNKET® (bispecific antibody, human IgG1, kappa)
chain: B15 chain with L136V, V179L, S180A, S206A, T209S
heavy: B7 heavy
light: B7 light
notes: F3′ format; also called AB1889-VL-VH TriNKET®; 11F09-IGHV3-48*01 BM2-YB
B19: AB1891-TriNKET® (bispecific antibody, human IgG1, kappa)
chain: B15 chain with L136V, Q144K, V168I, S206A, T209S
heavy: B7 heavy
light: B7 light
notes: F3′ format; also called AB1891-VL-VH TriNKET®; 11F09-IGHV3-11*01 BM1-YB
B20: AB1879-TriNKET® (bispecific antibody, human IgG1, kappa)
chain: B15 chain with L136V, S206A, T209S
heavy: B7 heavy
light: B7 light
notes: F3′ format; also called AB1879-VL-VH TriNKET®; 11F09-IGHV3-48*01 BM1-YB
B21: AB1883-TriNKET® (bispecific antibody, human IgG1, kappa)
chain: B15 chain with E132Q, L136V, Q144K, V179L, S180A, S206A, T209S
heavy: B7 heavy
light: B7 light
notes: F3′ format; also called AB1883-VL-VH TriNKET®; 11F09-IGHV3-11*01 BM2-YB
B22: AB1888-TriNKET® (bispecific antibody, human IgG1, kappa)
chain: B15 chain with L136V, Q144K, S206A, T209S
heavy: B7 heavy
light: B7 light
notes: F3′ format; also called AB1888-VL-VH TriNKET®; 11F09-IGHV3-21*05 BM1-YB
B23: AB1017 (antibody, V domains shown)
VH: B1 VH with A23E, V48L, S49A
VL: B1 VL
notes: member of the group m33

Where a chain is given by its changes, count along the chain named.

The target in the first assay is T1, human 5T4 on the cell surface (human, UniProt Q13641 32-420).
T1 construct: whole, on cells; also called h5T4; TPBG
T1 sequence (looked up): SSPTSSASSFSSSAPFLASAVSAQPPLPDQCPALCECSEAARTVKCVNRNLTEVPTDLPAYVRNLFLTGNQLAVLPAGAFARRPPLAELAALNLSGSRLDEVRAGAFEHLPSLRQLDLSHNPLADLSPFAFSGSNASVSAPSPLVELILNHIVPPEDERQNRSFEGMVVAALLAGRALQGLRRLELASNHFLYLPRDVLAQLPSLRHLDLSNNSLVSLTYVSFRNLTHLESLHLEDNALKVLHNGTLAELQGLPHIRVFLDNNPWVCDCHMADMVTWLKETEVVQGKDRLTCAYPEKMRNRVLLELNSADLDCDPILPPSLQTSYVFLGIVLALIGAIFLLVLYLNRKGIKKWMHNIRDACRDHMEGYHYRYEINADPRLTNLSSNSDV
In words: flow cytometry on H1975 cells, FOB. A general note: Flow cytometry measures light scatter and fluorescence of single cells or particles in a stream.
For the molecule B1, the binding result is given as “binds”.

Take B2: the binding result is recorded as “binds”.

Consider B3, for which the binding result is given as “binds”.

With B4, the binding result is reported as “binds”.

Turning to B5, the binding result is reported as “binds”.

For the molecule B6, the binding result is recorded as “binds”.

The target of another assay is T1, human 5T4 on the cell surface. In words: cell binding assay on 5T4-expressing tumor cells (cell line not given).
The EC50 is the concentration giving half of the maximal effect. In the case of B7, the midpoint of the response, the EC50, lay at 10.1 nM and the “Max Fold Over Background (FOB)” value was found to be 71.6 fold over background.

For the molecule B8, the EC50 was found to be 5.65 nM and the “Max Fold Over Background (FOB)” value was found to be 73.5 fold over background.

In the case of B9, the response was half-maximal at 6.08 nM (EC50) and the “Max Fold Over Background (FOB)” value stood at 70.5 fold over background.

For B10, a half-maximal effect (EC50) was put at 5.37 nM and the “Max Fold Over Background (FOB)” value came out at 68 fold over background.

Regarding B11, the response was half-maximal at 8.55 nM (EC50) and the “Max Fold Over Background (FOB)” value is 71.8 fold over background.

In the case of B12, a half-maximal response (EC50) required 7.28 nM and the “Max Fold Over Background (FOB)” value turned out to be 72.5 fold over background.

Turning to B13, a half-maximal effect (EC50) was put at 10.2 nM and the “Max Fold Over Background (FOB)” value was 75 fold over background.

Consider B14, for which the EC50 was found to be 4.21 nM and the “Max Fold Over Background (FOB)” value was determined as 60 fold over background.

The target is the same in another assay. The description is as above. The source holds these as a separate data set.
On to B15, for which a half-maximal effect (EC50) was put at 5.62 nM and the “Max Fold Over Background (FOB)” value turned out to be 65.9 fold over background.

On to B16, for which the EC50 was found to be 15.9 nM and the “Max Fold Over Background (FOB)” value was determined as 70.8 fold over background.

Take B17: the EC50 worked out at 21.7 nM and the “Max Fold Over Background (FOB)” value was 48.5 fold over background.

In the case of B18, the EC50 was determined as 20.7 nM and the “Max Fold Over Background (FOB)” value was 11.7 fold over background.

With B19, the EC50 was determined as 50.5 nM and the “Max Fold Over Background (FOB)” value worked out at 40.1 fold over background.

For the molecule B20, the EC50 was 9.18 nM and the “Max Fold Over Background (FOB)” value was 62.9 fold over background.

On to B21, for which the concentration giving a half-maximal response (EC50) was 6.02 nM and the “Max Fold Over Background (FOB)” value is 69.4 fold over background.

Consider B22, for which the EC50 is 18.5 nM and the “Max Fold Over Background (FOB)” value amounted to 22.1 fold over background.

The target is the same in a further assay. In words: flow cytometry on H1975 cells, FOB. The source holds these as a separate data set.
As to B23, the binding result is given as “binds”.

The record behind these values is patent US20230203202A1 (DRAGONFLY THERAPEUTICS, published 2023).
